The target in the assay is T1, reconstituted SET1C (FLAG-Set1 and the seven other untagged subunits) (S. cerevisiae, UniProt P38827 1-1080; P39706 1-426; P36104 1-329; P38123 1-315; P43132 1-505; Q03323 …).
T1 construct: Set1, S. cerevisiae, full length (Set1 FL); Swd1, S. cerevisiae, untagged subunit; Swd2, S. cerevisiae, untagged subunit; Swd3, S. cerevisiae, untagged subunit; Bre2, S. cerevisiae, untagged subunit; Sdc1, S. cerevisiae, untagged subunit; Spp1, S. cerevisiae, untagged subunit; Shg1, S. cerevisiae, untagged subunit; The seven subunits are named in the introduction; also called full-length SET1C; …
The assay is described as follows: pull-down; GST-tagged Snf2 fragments (250 nM) on glutathione-Sepharose 4B with SET1C or C762SET1C (25 nM), BSA 0.2 mg/ml; 20 mM Tris-Cl pH 7.9, 150 mM NaCl, 0.2 mM EDTA, 20% glycerol, 0.1% NP-40; 4°C, 3 hr; immunoblotting. Conditions: both partners purified.

B1: GST-Snf2C-AT-hook (domain or fragment, S. cerevisiae, UniProt P22082 1384-1547, looked up)
chain: ARKQRTKKEDKSEAIDGNGEIKGENIDADNDGPRINNISAEDRADTDLAMNDDDFLSKKRKAGRPRGRPKKVKLEGSENSEPPALESSPVTGDNSPSEDFMDIPKPRTAGKTSVKSARTSTRGRGRGRGRGRGRGRGRGRPPKARNGLDYVRTPAAATSPIDIR
notes: Snf2, S. cerevisiae, AT-hook region 1384-1547; also called Snf2-AT-hook; GST-Snf2-AT-hook; source: E. coli BL21, purified
Regarding B1, the binding result is “binds”.

For the origin of these results see publication PMC13581290, “A systematic interactome of Saccharomyces cerevisiae SET1C expands its functional landscape and identifies candidate regulatory connections” (eLife, 2026).
